Experiments:
[1] = biological target: GST fused to the TRPM8 C-terminal tail; assay: pull-down; as a4, with 1, 10 or 100 nM testosterone during incubation of in vitro translated AR with the N- or C-terminal tail of TRPM8
[2] = biological target: GST fused to the TRPM8 N-terminal tail; assay: pull-down; purified GST-fusion proteins of the TRPM8 tails on beads incubated overnight at 4 °C with in vitro translated AR proteins, no testosterone; fluorescence imaging or anti-AR immunoblot; normalised to the input

Chain of in vitro translated AR (P10275 whole entry, the tested form may be a part): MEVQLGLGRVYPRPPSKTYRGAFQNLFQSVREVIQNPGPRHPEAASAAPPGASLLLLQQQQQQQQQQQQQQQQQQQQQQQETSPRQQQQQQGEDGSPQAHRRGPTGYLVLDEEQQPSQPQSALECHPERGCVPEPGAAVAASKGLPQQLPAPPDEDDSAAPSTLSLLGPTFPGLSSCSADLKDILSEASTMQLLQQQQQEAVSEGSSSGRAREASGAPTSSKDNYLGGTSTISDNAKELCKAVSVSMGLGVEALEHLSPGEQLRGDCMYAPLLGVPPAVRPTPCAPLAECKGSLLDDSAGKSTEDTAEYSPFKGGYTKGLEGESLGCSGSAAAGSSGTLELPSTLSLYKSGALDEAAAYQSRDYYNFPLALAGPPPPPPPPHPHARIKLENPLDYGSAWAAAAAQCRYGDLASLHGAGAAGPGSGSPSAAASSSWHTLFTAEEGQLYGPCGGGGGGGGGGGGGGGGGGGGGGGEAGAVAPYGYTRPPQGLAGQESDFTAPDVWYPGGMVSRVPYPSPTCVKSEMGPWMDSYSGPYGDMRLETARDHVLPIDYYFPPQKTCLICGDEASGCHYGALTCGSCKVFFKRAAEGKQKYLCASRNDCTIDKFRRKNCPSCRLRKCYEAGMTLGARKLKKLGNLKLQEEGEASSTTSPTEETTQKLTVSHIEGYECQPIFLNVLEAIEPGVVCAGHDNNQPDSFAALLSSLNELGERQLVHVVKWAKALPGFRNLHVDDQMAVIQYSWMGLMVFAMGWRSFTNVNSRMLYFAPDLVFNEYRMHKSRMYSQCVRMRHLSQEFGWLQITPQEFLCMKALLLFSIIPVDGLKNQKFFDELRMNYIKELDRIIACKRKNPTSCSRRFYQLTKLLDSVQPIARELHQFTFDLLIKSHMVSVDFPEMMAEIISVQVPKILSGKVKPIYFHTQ

## in vitro translated AR (from UniProt P10275 1-920) (natural protein)
[1]
  percent decrease of pulled-down AR with 1 nM testosterone: 43%
  percent decrease of pulled-down AR with 10 nM testosterone: 65.6%
  percent decrease of pulled-down AR with 100 nM testosterone: 93.1%
[2]
  percent stronger pull-down by M8-Nt than by M8-Ct: 48%

Reference: publication PMC6733924
